The values that follow are results of earlier work, collected in publication PMC10968392.

This series has as its target SARS-CoV-2 spike protein (cited Kd) (SARS-CoV-2) (UniProt P0DTC2). Description: not stated here (previous study). The following applies: PBSMCT: DPBS, 1 mM MgCl2, 1 mM CaCl2, 0.025% Tween-20; 25 °C, 1 h; pH not stated.

Broadly, the Kd is the concentration at which binding is half-saturated. For the sequence “GAACATTGGCGTCCGTGAGTGAGACCATAGTCCAGCGAACTAAACCTACCCTAAAGGGCAAGGAAGACGGGCACTTCCTCAAACGCCCAA [SpS1-C1 aptamer]”, the Kd is 1.47 nM.

For “GAACATTGGCGTCCGTGAGCAGCTCGTGGTTGTTTGCTTGTATACTTTTGTGGTTTATCTTGTTTCTGATCACTTCCTCAAACGCCCAA [SpS1-C4 aptamer]”, the Kd was 1.81 nM.
